# IntAct's records for PubMed 29039417
# B1: Protein PTHB1 (Homo sapiens), Q3SYG4 (parent)
# chain: MSLFKARDWWSTILGDKEEFDQGCLCLANVDNSGNGQDKIIVGSFMGYLRIFSPHPAKTGDGAQAEDLLLEVDLRDPVLQVEVGKFVSGTEMLHLAVLHSRKLCVYSVSGTLGNVEHGNQCQMKLMYEHNLQRTACNMTYGSFGGVKGRDLICIQSMDGMLMVFEQESYAFGRFLPGFLLPGPLAYSSRTDSFLTVSSCQQVESYKYQVLAFATDADKRQETEQQKLGSGKRLVVDWTLNIGEQALDICIVSFNQSASSVFVLGERNFFCLKDNGQIRFMKKLDWSPSCFLPYCSVSEGTINTLIGNHNNMLHIYQDVTLKWATQLPHIPVAVRVGCLHDLKGVIVTLSDDGHLQCSYLGTDPSLFQAPNVQSRELNYDELDVEMKELQKIIKDVNKSQGVWPMTEREDDLNVSVVVSPNFDSVSQATDVEVGTDLVPSVTVKVTLQNRVILQKAKLSVYVQPPLELTCDQFTFEFMTPDLTRTVSFSVYLKRSYTPSELEGNAVVSYSRPTDRNPDGIPRVIQCKFRLPLKLICLPGQPSKTASHKITIDTNKSPVSLLSLFPGFASQSDDDQVNVMGFHFLGGARITVLASKTSQRYRIQSEQFEDLWLITNELILRLQEYFEKQGVKDFACSFSGSIPLQEYFELIDHHFELRINGEKLEELLSERAVQFRAIQRRLLARFKDKTPAPLQHLDTLLDGTYKQVIALADAVEENQGNLFQSFTRLKSATHLVILLIALWQKLSADQVAILEAAFLPLQEDTQELGWEETVDAAISHLLKTCLSKSSKEQALNLNSQLNIPKDTSQLKKHITLLCDRLSKGGRLCLSTDAAAPQTMVMPGGCTTIPESDLEERSVEQDSTELFTNHRHLTAETPRPEVSPLQGVSE
# partner: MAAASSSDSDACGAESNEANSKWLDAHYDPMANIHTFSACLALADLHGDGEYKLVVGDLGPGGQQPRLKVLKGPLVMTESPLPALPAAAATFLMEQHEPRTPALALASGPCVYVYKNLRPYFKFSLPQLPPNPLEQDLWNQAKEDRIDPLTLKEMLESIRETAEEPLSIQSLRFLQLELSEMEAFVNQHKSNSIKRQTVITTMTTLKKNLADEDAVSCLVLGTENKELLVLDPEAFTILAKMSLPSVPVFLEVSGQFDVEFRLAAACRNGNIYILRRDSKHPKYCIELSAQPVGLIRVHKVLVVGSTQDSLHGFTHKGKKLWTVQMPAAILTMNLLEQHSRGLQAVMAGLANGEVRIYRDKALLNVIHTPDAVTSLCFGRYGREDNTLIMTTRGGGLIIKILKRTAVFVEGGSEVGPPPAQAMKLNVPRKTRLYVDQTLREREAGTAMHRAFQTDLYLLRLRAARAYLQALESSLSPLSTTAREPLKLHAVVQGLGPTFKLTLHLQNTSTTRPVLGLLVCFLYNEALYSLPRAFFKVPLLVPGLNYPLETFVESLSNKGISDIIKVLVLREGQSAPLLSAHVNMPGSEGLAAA
# Variants of: B1
# Settings: with bbs1_human BBS1, Q8NFJ9
row,effect of a mutation on the interaction,Variant
1,with no effect,V417E
2,with no effect,F721E
3,with no effect,R587A
4,with no effect,D804E
5,with no effect,D409A
6,with no effect,P840E
7,with no effect,N794A
8,with no effect,Q426E
9,with no effect,L620A
10,with no effect,H869A
11,with no effect,L757E
12,with no effect,D422E
13,with no effect,P758A
14,with no effect,L536E
15,with no effect,I640K
16,with no effect,D711K

row,effect of a mutation on the interaction,Variant
1,with no effect,E408K
2,with no effect,T428K
3,with no effect,Q835A
4,with no effect,Y490E
5,with no effect,Y490A
6,with no effect,S886K
7,with no effect,Q760A
8,with no effect,D551E
9,with no effect,S849A
10,with no effect,G822E
11,with no effect,T771E
12,with no effect,V506E
13,with no effect,R449E
14,disrupting interaction strength,Q627T
15,with no effect,T874A
16,with no effect,A455K

# Further lines, the variant ahead of its results:
row,Variant,effect of a mutation on the interaction
1,R510K,with no effect
2,R854E,with no effect
3,G538A,with no effect
4,V879E,with no effect
5,P564A,with no effect
6,S458E,with no effect
7,S820A,with no effect
8,S820E,with no effect
9,E475K,with no effect
10,S785A,with no effect
11,F721S,disrupting interaction strength
12,V734K,with no effect
13,L591K,with no effect
14,V416A,with no effect
15,L733A,disrupting interaction strength
16,C843A,with no effect
17,V489K,with no effect
18,L808E,with no effect
19,R619A,with no effect
20,Q764K,with no effect

row,Variant,effect of a mutation on the interaction
1,H869E,with no effect
2,A775K,with no effect
3,E664K,with no effect
4,V522A,with no effect
5,L757K,with no effect
6,L757I,disrupting interaction strength
7,I548E,with no effect
8,W768E,with no effect
9,N800A,with no effect
10,D631E,with no effect
11,Q471A,with no effect
12,L720K,with no effect
13,P419E,with no effect
14,P497A,with no effect
15,V485K,with no effect
16,E501K,with no effect
17,K630E,with no effect
18,P540E,with no effect
19,S787K,with no effect
20,R600E,with no effect

row,Variant,effect of a mutation on the interaction
1,E654A,with no effect
2,C816K,with no effect
3,Q602A,with no effect
4,Q760K,with no effect
5,L740E,with no effect
6,S541A,with no effect
7,Q524E,with no effect
8,E852A,with no effect
9,V506K,with no effect
10,S507K,with no effect
11,I776E,with no effect
12,T874E,with no effect
13,H651K,with no effect
14,S880E,with no effect
15,T805A,with no effect
16,H581E,with no effect
17,L452E,with no effect
18,T468A,with no effect
19,K809E,disrupting interaction strength
20,F624K,with no effect
